Measurements taken from the supplement of paper PMC9112550, “Optimization of the antimicrobial peptide Bac7 by deep mutational scanning” (BMC Biology, 2022).

Test system: Escherichia coli TOP10
Assay: shrunken log2 fold change of peptide-encoding DNA abundance (4.5 h post-induction vs induction); higher = less antimicrobial activity (less host growth inhibition)
Conditions: time post-induction: 4.5 h; library: site-saturation at positions 5, 18, 19, 20
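Further: peptides expressed intracellularly from a pBAD plasmid library in pooled LB shake-flask culture, induced with 0.3% L-arabinose, DNA abundance read by NGS, three biological replicates, DESeq2 with apeglm shrinkage.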

Row | Sequence | shrunken log2 fold change
1 | RRIRHRPPRLPRPRPRPRMMPRP | -0.0987
2 | RRIRGRPPRLPRPRPRPTNEPRP | 0.46
3 | RRIRSRPPRLPRPRPRPDQTPRP | 0.0249
4 | RRIRERPPRLPRPRPRPSSDPRP | -0.164
5 | RRIRVRPPRLPRPRPRPQDTPRP | -0.64
6 | RRIRARPPRLPRPRPRPTEGPRP | 0.941
7 | RRIRNRPPRLPRPRPRPKQIPRP | -0.294
8 | RRIRQRPPRLPRPRPRPFVSPRP | -0.216
9 | RRIRIRPPRLPRPRPRPCMLPRP | -0.61
10 | RRIRRRPPRLPRPRPRPPPQPRP | 1.27
11 | RRIRDRPPRLPRPRPRPVGAPRP | 0.825
12 | RRIRERPPRLPRPRPRPPWVPRP | -0.0642
13 | RRIRNRPPRLPRPRPRPFALPRP | 0.814
14 | RRIRVRPPRLPRPRPRPTVHPRP | -0.0675
15 | RRIRERPPRLPRPRPRPDMIPRP | 0.0157
16 | RRIRIRPPRLPRPRPRPFLHPRP | -0.787
17 | RRIRARPPRLPRPRPRPSADPRP | 0.804
18 | RRIRARPPRLPRPRPRPASAPRP | 0.52
19 | RRIRTRPPRLPRPRPRPLSRPRP | -0.45
20 | RRIRCRPPRLPRPRPRPTGSPRP | 0.0208

Row | Sequence | shrunken log2 fold change
21 | RRIRPRPPRLPRPRPRPNPRPRP | 0.596
22 | RRIRCRPPRLPRPRPRPSPKPRP | -0.326
23 | RRIRCRPPRLPRPRPRPNYIPRP | -0.84
24 | RRIRPRPPRLPRPRPRPAMWPRP | 0.251
25 | RRIRARPPRLPRPRPRPNLCPRP | 0.0317
26 | RRIRSRPPRLPRPRPRPSYEPRP | -0.426
27 | RRIRMRPPRLPRPRPRPDTPPRP | 0.872
28 | RRIRGRPPRLPRPRPRPYCPPRP | -0.333
29 | RRIRCRPPRLPRPRPRPNPQPRP | -0.359
30 | RRIRVRPPRLPRPRPRPGIAPRP | 0.0106
31 | RRIRKRPPRLPRPRPRPRPMPRP | 0.585
32 | RRIRPRPPRLPRPRPRPRGIPRP | -0.176
33 | RRIRPRPPRLPRPRPRPQFDPRP | -0.0475
34 | RRIRPRPPRLPRPRPRPWEGPRP | 0.0632
35 | RRIRHRPPRLPRPRPRPNQSPRP | -0.3
36 | RRIRPRPPRLPRPRPRPPKCPRP | -0.028
37 | RRIRFRPPRLPRPRPRPEMCPRP | -0.0817
38 | RRIRDRPPRLPRPRPRPKTNPRP | -0.0796
39 | RRIRSRPPRLPRPRPRPIDTPRP | -0.117
40 | RRIRQRPPRLPRPRPRPIKKPRP | -0.1

Row | Sequence | shrunken log2 fold change
41 | RRIRQRPPRLPRPRPRPVNFPRP | -0.346
42 | RRIRKRPPRLPRPRPRPFCNPRP | 0.128
43 | RRIRPRPPRLPRPRPRPWKFPRP | -0.0127
44 | RRIRTRPPRLPRPRPRPVDRPRP | 0.141
45 | RRIRNRPPRLPRPRPRPNFLPRP | -0.0488
46 | RRIRERPPRLPRPRPRPEYFPRP | -0.0105
47 | RRIRMRPPRLPRPRPRPNNHPRP | -0.178
48 | RRIRCRPPRLPRPRPRPIETPRP | -0.0366
49 | RRIRYRPPRLPRPRPRPISAPRP | -0.373
50 | RRIRARPPRLPRPRPRPQRHPRP | 0.212
51 | RRIRSRPPRLPRPRPRPFVLPRP | -0.215
52 | RRIRKRPPRLPRPRPRPIRNPRP | -0.34
53 | RRIRARPPRLPRPRPRPMQPPRP | 0.369
54 | RRIRSRPPRLPRPRPRPLTYPRP | -0.132
55 | RRIRYRPPRLPRPRPRPTKFPRP | -0.316
56 | RRIRERPPRLPRPRPRPFPGPRP | -0.0108
57 | RRIRVRPPRLPRPRPRPITLPRP | 1.44
58 | RRIRSRPPRLPRPRPRPDMWPRP | -0.409
59 | RRIRFRPPRLPRPRPRPQCAPRP | 0.057
60 | RRIRHRPPRLPRPRPRPSFHPRP | -0.495
